According to PMC10266979:

How the values were obtained:
[1] = molecular target: Recombinant neuraminidase (N2) from H3N2 A/Tanzania/205/2010 (influenza A virus H3N2 A/Tanzania/205/2010); test: cryo-EM structure
[2] = molecular target: Recombinant neuraminidase (N2) from H3N2 A/Tanzania/205/2010 with S245N and S247T mutations (influenza A virus H3N2 A/Tanzania/205/2010); test: cryo-EM structure

Row | Substance | stoichiometry N [1] | stoichiometry N [2]
1 | Recombinant neuraminidase (N2) from H3N2 A/Tanzania/205/2010 (enzyme) | 4 | –
2 | Recombinant neuraminidase (N2) from H3N2 A/Tanzania/205/2010 with S245N and S247T mutations (enzyme) | – | 4
